Assay results from paper PMC8885411, “Engineered ACE2 decoy mitigates lung injury and death induced by SARS-CoV-2 variants” (Nature Chemical Biology, 2022).

B1: REGN10933 (antibody, V domains shown)
VH: QVQLVESGGGLVKPGGSLRLSCAASGFTFSDYYMSWIRQAPGKGLEWVSYITYSGSTIYYADSVKGRFTISRDNAKSSLYLQMNSLRAEDTAVYYCARDRGTTMVPFDYWGQGTLVTVSS
VL: DIQMTQSPSSLSASVGDRVTITCQASQDITNYLNWYQQKPGKAPKLLIYAASNLETGVPSRFSGSGSGTDFTFTISGLQPEDIATYYCQQYDNLPLTFGGGTKVEIK
notes: also called casirivimab
B2: REGN10987 (antibody, V domains shown)
VH: QVQLVESGGGVVQPGRSLRLSCAASGFTFSNYAMYWVRQAPGKGLEWVAVISYDGSNKYYADSVKGRFTISRDNSKNTLYLQMNSLRTEDTAVYYCASGSDYGDYLLVYWGQGTLVTVSS
VL: QSALTQPASVSGSPGQSITISCTGTSSDVGGYNYVSWYQQHPGKAPKLMIYDVSKRPSGVSNRFSGSKSGNTASLTISGLQSEDEADYYCNSLTSISTWVFGGGTKLTVL
notes: also called imdevimab

Target: T1, SARS-CoV-1 S protein with C-terminal C9 tag (SARS-CoV-1 (Severe acute respiratory …, UniProt P59594))
T1 construct: also called S protein of SARS-CoV-1; SARS-spike
Experiment: flow cytometry on cells
Conditions: one partner purified

Binder | binding result
B1 | no binding
B2 | no binding
